Measured values taken from publication PMC6069116.

Target: HrpG/HrpV complex from Erwinia amylovora, separately produced (Erwinia amylovora)
Assay: SEC-MALS

“HrpJ from Erwinia amylovora, separately produced and purified (natural protein)” was tested. Which stoichiometry N (HrpG:HrpV:HrpJ) did it give?
The stoichiometry N (HrpG:HrpV:HrpJ) was 1.
